This note sets out measurements from doi:10.1101/2024.01.03.573942 (bioRxiv, 2024).

As a reminder, the stoichiometry N is a count of units in the complex or per binding partner.

For series [1], the target named is ModTad2 (Tad2 homolog encoded by a prophage of Myroides odoratus) (prophage of Myroides odoratus). As to the kind of experiment: crystal structure.
Series [2] concerns the molecule itself. As to the kind of experiment: crystal structure.

In turn, “ModTad2 (Tad2 homolog encoded by a prophage of Myroides odoratus) (natural protein)” displayed a stoichiometry N in series [1] of 4.

B1: Macro domain of ThsA(amylo) (residues 83-297), type II Thoeris of Bacillus amyloliquefaciens Y2 (domain or fragment, UniProt I2C645 83-297, looked up)
chain: NNITLNLNGSEVEIKKGDIFEVPRNNYKVIAFNEYFDTQVDDVIIARETLNGQYIKRYYSHQDITELDQKIKDDVKLKIEEKNVERPFGGKTTRYSLGSVFKDMDFFLVAFSKFDRENRAQLKLNEYASCMLNVWNEINTLHASKEVFIPLLGSGITRHVDSDVGVNELLHIMLWTFQISKVKFREPAKVTILLYKNDHKKINFYKLKEFEKNGL
B1: the “stoichiometry N” value in series [2] came out at 2.
